These results are taken from patent US20260069689A1 (Regeneron, published 2026).

Experiment [1] deals with SARS-COV-2 RBD extracellular domain expressed with a C-terminal myc-myc-hexahistidine tag (SARS-CoV-2). The experiment in a line: SPR (Biacore), mAb captured by anti-human Fc, RBD-mmH in solution, 25 C. In general terms: Surface plasmon resonance follows binding to a sensor surface in real time, without labels.
In experiment [2] the target is SARS-COV-2 RBD extracellular domain expressed with a C-terminal myc-myc-hexahistidine tag (SARS-COV-2 RBD-mmH) (SARS-CoV-2). The experiment in a line: SPR Biacore, mAb captured on anti-hFc, RBD-mmH analyte, 37 C.

B1: mAb14282 (antibody, V domains shown)
VH: QVQLVQSGAEVKKPGASVKVSCKASGYIFTDHYMHWVRQAPGQGLEWMGWINPNSGATNYAQNFQGRVTMTRDTSIITVYMELSRLRSDDTAVYYCARDSSPYMIRYTMDVWGQGTTITVSS
VL: QSALTQPASVSGSPGQSITISCTGTSSDVGSYNLVSWYQQHPGKAPKLMIYELTKRPSGVSNRFSGSKSGNTASLTISGLQAEDEADYYCSSYRGSVTDVVFGGGTKLTVLG
By Kd is commonly meant the concentration at which binding is half-saturated. Lower therefore signals higher affinity. One may read the koff as a measure of how fast the partners let go of each other. Usually kon stands for the second-order rate constant of association. A high value points to fast association. What is called t½ is the time in which the quantity being followed falls by half. Low readings indicate fast loss, high ones slow loss. In experiment [1], B1 registered a Kd of 4.97 nM, a koff of 0.00957 s⁻¹, a kon of 1.93e+06 M⁻¹ s⁻¹ and a t½ of 1.2 min.

B2: mAb14292 (antibody, V domains shown)
VH: EVQLVESGGGLVQPGGSLRLSCVASGFAFSTYEMNWVRQAPGKGLEWVSYISSSGSTIYYADSVKGRLTISRDNVKNSLYLQMNSLRVEDTAIYYCARDAIRNNDILTDPATFDPWGQGTLVTVSS
VL: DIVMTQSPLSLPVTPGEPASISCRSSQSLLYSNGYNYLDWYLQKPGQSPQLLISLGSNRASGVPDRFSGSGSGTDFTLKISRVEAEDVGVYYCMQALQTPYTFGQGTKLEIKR
B2: in experiment [1], the Kd turned out to be 40.9 nM, the koff was determined as 0.0171 s⁻¹, the association rate constant (kon) was found to be 417000 M⁻¹ s⁻¹ and the t½ came to 0.7 min.

B3: mAb14256 (antibody, V domains shown)
VH: QVQLQESGPGLVKPSETLSLTCTVSGGSISSHYWSWIRQPPGKGLEWIGYIYYSGSSNYNPSLKSRVTISVDTSKNQFSLKLNSVTAADTAVYYCARHYDILTGFDWFDPWGQGTLVTVSS
VL: QSVLTQPPSVSGAPGQRVTISCTGSSSNIGTHYDVHWYQQLPGTAPKLLIYGNSNRPSGVPDRFSGSKSGTSASLAITGLQAEDEADYYCQSFDNSLTAPYVFGTGTKVTVLG
As to B3, in experiment [1], binding was put at a Kd of 8.32 nM, the dissociation rate constant (koff) is 0.00927 s⁻¹, the kon worked out at 1.11e+06 M⁻¹ s⁻¹ and the t½ is 1.2 min.

B4: mAb14234 (antibody, V domains shown)
VH: QVQLVESGGGVVQPGRSLRLSCAASGFTFSSYGIHWVRQAPGKGLEWVAIIWYDGSEKYYADSVKGRFTISRDNSKNTLFLQMNSLEAEDTAVYYCARGPDLLTGYYNYFYYGMDVWGQGTTVTVSS
VL: QSVLTQPPSVSGAPGQRVTISCTGSSSNIGIGYDVHWYQQLPGTVPKLLIYGNTNRPSGVPDRFSGSKSGTSASLAITGLQAEDEADYYCQSYDSSLSSYVFGTGTKVTVLG
For B4, in experiment [1], the Kd was 20.5 nM, the koff stood at 0.0113 s⁻¹, the kon was 550000 M⁻¹ s⁻¹ and the t½ was found to be 1 min.

B5: mAb15151 (antibody, V domains shown)
VH: QVQLVESGGGVVQPGRSLRLSCAASGFVFNSYGMHWVRQAPGKGLEWVAVLWYEGSKNYYADSVKGRFTISRDNSKNTLYLQMNSLRAEDTAVYYCARHGSGSFFGYYLDYWGQGTLVTVSS
VL: DIQMTQSPSSLSASVGDRVTITCRASHNINDFLNWYQQKPGKAPRLLIYAASSLQSGVPSRFSGSGSGTDFTLTISSLQPEDFATYYCQESYTTPPTFGQGTKLEIKR
With B5, in experiment [2], the affinity, expressed as Kd, was 24.6 nM; the koff worked out at 0.00442 s⁻¹; the kon is 180000 M⁻¹ s⁻¹; the t½ came out at 2.6 min.

B6: mAb15156 (antibody, V domains shown)
VH: QLQLQESGPGLVKSSETLSLTCTVSASITGSTYYWGWIRQPPGKGLEWIGSIYYSGTTYYKASLKSRVTISVDTSKNQFSLKLTSVTVADTAVYYCVSHLLGNYHKYGMDVWGQGTTVTVSS
VL: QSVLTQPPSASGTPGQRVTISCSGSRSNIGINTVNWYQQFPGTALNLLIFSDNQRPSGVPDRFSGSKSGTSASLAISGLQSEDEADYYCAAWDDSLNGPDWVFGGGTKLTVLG
In experiment [1], B6 showed a Kd of 4.18 nM, a koff of 0.00121 s⁻¹, a kon of 289000 M⁻¹ s⁻¹ and a t½ of 9.6 min.

B7: mAb14280 (antibody, V domains shown)
VH: QVQLVQSGAEVKKPGASVRVSCKASGYTFTGNYIHWVRQAPGQGLEWMAWINPNSGGKNYAQKFQGRVTLTRDTSVNTAYMELSRLRSDDTAMYYCARDVNYNILTGPGGLWGQGTLVTVSS
VL: QSALTQPPSASGSPGQSVTISCTGTSSDVGGYNFVSWYQQHPGKAPKLMIYEVSKRPSGVPDRFSGSKSGNTASLTVSGLQAEDEADYYCSSYAGSNNFVFGTGTKVTVLG
In experiment [1], B7 yielded a Kd of 15.4 nM, a dissociation rate constant (koff) of 0.0255 s⁻¹, a kon of 1.66e+06 M⁻¹ s⁻¹ and a t½ of 0.5 min.

B8: mAb15158 (antibody, V domains shown)
VH: EVQLVESGGGLVQPGGSLRLSCAASGFSFSSNWMSWVRQAPGKGLEWVGNINQDGSEKYYVDSVEGRFTISRDNAKKSLYLQMNSLRAEDTAVYYCARDLGVLWFGDFVDWGQGALVTVSS
VL: DIQMTQSPSSLSASVGDRVTITCRASQAISNSLAWYQQKPGKAPKLLLYAASTLESGVPSRFSGSGSGTDYTLTISSLQPEDFATYYCLQYYGSPRTFGQGTKVEIKR
In experiment [1], B8 came in with a dissociation constant Kd of 0.779 nM, a koff of 8.12e-05 s⁻¹, a kon of 104000 M⁻¹ s⁻¹ and a t½ of 142 min.

B9: mAb15150 (antibody, V domains shown)
VH: EVQLVETGGGLIQPGGSLRLSCAAPGFIVSSNYMSWVRQAPGKGLEWVSLLYPGGSTYYADSVKGRFTISRDNSKNTLYLQMNSLRADDTAVYYCARVLPIVEDHFDYWGQGTLVTVSS
VL: DIQLTQSPSFLSASVGDRVTITCRASQGMSSYLAWYQKKPGKAPKLLIYGATILQSGVPSRFSGSGSGTEFTLTISSLQPEDFATYYCQQLNSDPLYMYTFGQGTKLEIKR
In the case of B9, in experiment [2], the affinity, expressed as Kd, was 0.158 nM; the koff came out at 7.84e-05 s⁻¹; the kon stood at 493000 M⁻¹ s⁻¹; the t½ came out at 147 min.

B10: mAb14286 (antibody, V domains shown)
VH: QVQLVQSGAEVKKPGASVKVSCKASGYTFTDYFIHWVRQAPGQGLEWMGWINPTSGGTNYAQKFRGRVTMTRDTSISTAYVELSRLRSDDTALYYCARDLPFYSDTKQFDYWGQGTLVTVSS
VL: QSALTQPASVSGYPGQSITISCTGTSSDVGGYNYVSWYQQHPGKAPKLMIFDVSNRPSGVSNRFSGSKSGNTASLTFSGLQAEDEADYYCSSYTSSSTLVFGGGTKLTVLG
In experiment [1], B10 showed a Kd of 3.22 nM, a koff of 0.0104 s⁻¹, an on-rate (kon) of 3.23e+06 M⁻¹ s⁻¹ and a t½ of 1.1 min.

B11: mAb14285 (antibody, V domains shown)
VH: QVQLVQSGAEVKKPGASVKVSCKASGYTFTGYFIHWVRQAPGQGLEWMGWISPISGGTNYAQKFQGRVTVTRDTSITTAYMELSRLTSDDTAVYHCAREGGTWKGDFDYWGQGTLVTVSS
VL: QSALTQPASVSGSPGQSITISCTGTSSDVESYNLVSWYQQHPGKAPKLMIYEGSKRPSGVSNRFSGSKSGNTASLTISGLQAEDEADYYCSSYAGSSTWVFGGGTKLTVLG
With B11, in experiment [1], the affinity, expressed as Kd, was 11.7 nM; the koff stood at 0.0211 s⁻¹; the kon was 1.8e+06 M⁻¹ s⁻¹; the t½ stood at 0.5 min.

B12: mAb15157 (antibody, V domains shown)
VH: EVQLVESGGALVQPGGSLRLSCAASGFPFTIYAMTWVRQAPGKGLEWVSVITGSGDSTYYADSVKGRFTISRDNSKNTLYLQMNSLRAEDTAVYYCVKTGEGFFYYYYGMDVWGQGTTVTVSS
VL: QSVLTQPPSVSAAPGQKVTISCSGSSSNIGNSYISWYQQLPGTAPKLLIYVNNKRPSGIPDRFSGSKSGTSATLGITGLQTGDEADYYCGTWDSSLSAGVFGSGTKVTVLG
In experiment [1], B12 showed a Kd of 4.49 nM, a koff of 0.00125 s⁻¹, a kon of 278000 M⁻¹ s⁻¹ and a t½ of 9.3 min.

B13: mAb14312 (antibody, V domains shown)
VH: EVQLVESGGGLVQPGGSLRLSCAASGFTVSRSYMTWVRQAPGKGLEWVSVIFTGGRTDHADSVKGRFTISRHNSKNTLYLQMNSLRTEDTAVYYCARVAIVGATGAFDIWGQGTMVTVSS
VL: QSVLTQPPSVSGAPGQRVTISCTGSSSNIGAGDDVHWYQQLPGTAPKLLIYGNSNRPSGVPDRFSGSKSGTSASLAITGLQAEDEADYYCQSYDSSLSGSVVFGGGTKLTVLG
Consider B13, for which, in experiment [1], the equilibrium dissociation constant (Kd) amounted to 0.606 nM, the koff is 0.000929 s⁻¹, the kon came out at 1.53e+06 M⁻¹ s⁻¹ and the t½ is 12.4 min.

B14: mAb15159 (antibody, V domains shown)
VH: EVQLVESGGGLVQPGGSLRLSCAASGITVSSNYMTWVRQAPGKGLEWVSLIYSGGSTFYADSVRGRFTISRDNSKNTLYLQMNSLRAEDTAVYYCARDLVVYGMDVWGQGTTVTVSS
VL: DIQLTQSPSSLSASVGDRVTITCRASQGISSYLAWYQQKPGKAPKLLIYAASTLQSGVPSRFSGSGSGTDFTLTISSLQPEDFATYYCQHLNSDPHTFGQGTKLEIKR
In experiment [1], B14 displayed a Kd of 2.66 nM, a dissociation rate constant (koff) of 0.00013 s⁻¹, a kon of 48900 M⁻¹ s⁻¹ and a t½ of 88.8 min.

B15: mAb15170 (antibody, V domains shown)
VH: EVQLVESGGGLVQPGGSLRLSCAATGITVSSNYMSWVRQAPGKGLEWVSLIYSGGSTFYADSVKGRFTISRHNSKNTLYLQMSSLRAEDTAVYYCARDLVDFGMDVWGQGTTVTVSS
VL: DIQLTQSPSSLSASVGDRVTITCRASQGISNYLAWYQQKPGKAPKLLIYAASTLQSGVPSRFSGSGSGTDFTLTISSLQPEDFGTYYCQQLNSDSPTFGQGTKVEIKR
In experiment [2], B15 came in with a Kd of 0.297 nM, a koff of 8.36e-05 s⁻¹, a kon of 283000 M⁻¹ s⁻¹ and a t½ of 138 min.

B16: mAb14230 (antibody, V domains shown)
VH: EVQLVESGGGLIQPGRSLRLSCAASGFTFDDYAMHWVRQAPGKGLEWVSGISWNSVSIDYADSVKGRFTISRDNAKNSLYLQMTSLTVEDTALYYCAKAFGYETLTGSDYFAYWGPGTLVTVSS
VL: EIVLTQSPGTLSLSPGERATLSCRASQTVISTYLAWYQQKPGQSPRLLIYGASSRATGIPDRFSGSGSGTDFTLTISRLEPEDFAVYYCQQYGSSPQLTFGGGTKVEIKR
In the case of B16, in experiment [1], the Kd was 7.51 nM, the koff amounted to 0.00852 s⁻¹, the on-rate constant (kon) was found to be 1.13e+06 M⁻¹ s⁻¹ and the t½ came out at 1.4 min.

B17: mAb14281 (antibody, V domains shown)
VH: QVQLVQSGADVKKPGASVKVSCKTSGYIFTGYYIHWVRQAPGQGLEWMGWINPNSGGTNSAQKFQGRVTMTRDTSISTVYMELSRLRSDDTAVYYCAKSNSFSVLDYNFDYWGQGTLVTVSS
VL: SSELTQDPAVSVALGQTVRITCQGDSLRSYYASWYQQKPGQAPVLVIYDKNNRPSGIPDRFSGSSSGNTASLTITGAQAEDEADYYCNSRDSSRNHLVVFGGGTKLTVLG
In experiment [1], B17 had a Kd of 5.02 nM, a koff of 0.00554 s⁻¹, a kon of 1.1e+06 M⁻¹ s⁻¹ and a t½ of 2.1 min.
